Experimental data from the DeepSol protein solubility set.

Test: soluble on expression in E. coli; label from the status in PepcDB or PDB records

Q: With “MGSDKIHHHHHHMLLGRTANGLYWMNRYIERAENMARLVDAGLRMALTRTQNASEEWNSVLLSAGSDVAFKQKYSDYTAADVADFLLRDTSNPSSTMSSIETARNNARMVRTALTRETWESINEAWMSLKRMLARPIDERDLPSVLDAIKRETALIRGSFYGTMLRNEIFDFSQLGTYVERADNTARILDVKYYVLLPSISWVGSTLDNYQWESILRSVSAHRSYRWVYDADYKPTNIADYLILNVRMPRSLTFCYRFLSEHLKFLSDDYGERHACHATAEKTQAMLRAGSIKDIFDAGLHEFLAGFIRDNTRLGDEIAQDYRFY” as the sequence, how does the “soluble on expression in E. coli” value read?
A: not soluble

Q: For “MGSDKIHHHHHHMLLTDLVTPPDTALCAAAEEMARMASDPFLYNHVSRSYIFGALAARATGTQYDPELFYIAAMLHDLGLTETYMAEDRFEVDAAEAAAKFLAAQNVEQSRIDRVWDAIALHTTFSIPQKKSPEAALVQIGAGLDVGVMPHDHITPEVMEQVLDAYPRLGFKKAMEQALIKVYAAKPMTAMHNFGADVAHRHVPDFHPPHFCDVLHGADFPE”, which “soluble on expression in E. coli” value is on record?
A: not soluble

Q: For “MGSDKIHHHHHHMLLYIHGFNSSPFSDKAVITARYMAEYHPSLTFHQPQLPNTPKAAMALLQSYVEAAQQANEPLNYIGSSLGGYFASYLAERYGGRAVLVNPAVKPFELFDEFMGPQFNPYTQEHYQVLPEHKREVAEFNTPVIRNPERFLVLLQTGDEVLDYREALHKYHHCQLRIESGGDHSFVGYERYLQTVSQFLHLP”, which “soluble on expression in E. coli” value is on record?
A: not soluble

Q: With “MGSDKIHHHHHHMLNMNFDEQVFINTQEQPWVASPKAGVWRKPLAREDAERGHATSLVKFDPGASFTEHDHPLGEEILVLSGTFSDHTGDYHAGSYFRNPEGFRHAPFSKDGCILLVKLHQFQSGDNEHVVIDTANKSWSPGMGNLMVMPLHSFEGESTALVKWPKDERFQPHKHFGGEEIFVISGEFIDEHGRYPEGSWIRSPHLSEHFPYVEQETIILVKVGHL” as the sequence, how does the “soluble on expression in E. coli” value read?
A: not soluble

Q: Which “soluble on expression in E. coli” value does the source give for “MGSDKIHHHHHHMLNQVYRLVSPRQFEVETVAEEVDADDLIVRPKFLSICHADTRYFFGQRSQAALRAKLPMALIHEAVGEVVYDPRNEYKPGTLVAMVPNTPVKKDSIIQENYLPSSRFRSSGYDGFMQEYVCLRRDRAITVPSDFDPHMAAFIEMVSVGVQALTKLESTMDEDQRVIGIWGDGNLGYITATLVKQIFPDSQLLVFGRHQSKLDYFSFADKTYLVDDIPADVKVSQALECTGGQGSEAAIQQIIQHIQPMGTAILMGVSENPVGIDTRSVLAEGLTLRGVSRSSREDFKRAVDILSSSPVTRERLQNLVGYVQKVSSIQDITNFFDSALTNYWGKEVMEWDV” here?
A: not soluble

Q: With “MGSDKIHHHHHHMLPALWVAKTGLSAQDTNLTVISNNLANVSTTGFKRDRAEFADLLYQIKRQPGAQSTQDSELPSGLQVGTGVRIVGTQKSFVAGSLQTTDNPLDMAVNGRGFFQILQPDGTVSYTRDGTFHLNSDGQIVTDNGYALEPAIVVPNDAQTFTVGQDGTVSITTAGNPAAQVIGNIQTADFINPAGLQAIGDNLFLETAASGAPQVGTPGLNGFGTTLQQTLENSNVSTVEELVNMITTQRAYEMNSKVISTADQMLSFVTQQL” as the sequence, how does the “soluble on expression in E. coli” value read?
A: not soluble

Q: With “MGSDKIHHHHHHMLPFLRSELARCQPYHPNPGGTGMAMDILDTNECPYDLPTDLKQTLADRYVEAIASNRYPDGSHTDLKAAIVDYLSEQTAGQWQPGPEHVTVGNGSDELIRSILIATCLGGQGSVLVAEPTFSMYGIVAETLGIPVVRIGRDPQTWEMDLAAAETAITQTEGTPVRLCFVVHPNSPTANPLTEAEKDWLRQVPPQILVVIDEAYFEFSGETLLAELPQHPNWLITRTFSKALRLAAHRVGYGIGDPQLIAALEAIRLPYNLPSVAQLAATLALEARSQLLSAIPRLITERDRLYRKLQVVSQLQVWPSASNFLFLKTQSSSQTAALAAQLKAQGTLVRHTADGLRITIGSPAENERTLAHLQTAITQSLPATV” as the sequence, how does the “soluble on expression in E. coli” value read?
A: not soluble

Q: For “MGSDKIHHHHHHMLQGKVSVIVPAYNAARLLERCVRSITGQTYPALEVIVVDDGSKDDTGKIADQLAAEDSRIRVVHKTNGGVSAARNDALKLVEGEWITFVDSDDYLEPDFLRSLLDGEVADLVIGGYHTVGANEIPSANYPTDTAHSPEAIKRALEARLTDMTFLCPWGKLFRTSLVRSLRLIFNTEMKVGEDVVFVWSYLAHCSSLAFKQGQGYDYYTEPGADFKYALDETVSLQTIERILGVLDGLKRNFGMDTEHARCHVLNYYIWLFKLYVNRNYLLRDLARMKNFFYYPLILDYYKTYRRTSKDKLLVYLLLKLRLSGVLYLMIKLYY”, which “soluble on expression in E. coli” value is on record?
A: not soluble

Q: For “MGSDKIHHHHHHMLQTTNKPPLTIRLCQPRGFCAGVDRAIQIVVLALKKYGAPVYVRHEIVHNRYVVEGLQSLGAVFIEELSEIPAEHRRSPVVFSAHGVPKSVPADAQARNLFYLDATCPLVSKVHKQAMRHQRLGRHVLLIGHAGHPEVIGTMGQLPEGAVTLVETEADAARLVPADPKALGFVTQTTLSVEDTAGIIRALRERFPDLQAPAAESICYATTNRQEAVKDTAPGADLYLIVGAPNSSNSRRLVEVAERAGATMSLLVQRAAEIPWNDIGTISTLGLSAGASAPEIIVDEIIDAFRQRFDVTIDLAITATETEDFPVMRVLRDVELTPADMAFVNGAA”, which “soluble on expression in E. coli” value is on record?
A: not soluble

Q: With “MGSDKIHHHHHHMLRGKDATLAAIINIILDEEPETQDDIADRLGVSRRYVAKLLKPLVDGGAIMHPYVVNLEKLKEFEEYIETDRYFKEIYETFDRMGTNVIQNIDKVFDSLKTHDLDIAKSIILEDYALNRMEDEVNLVIKMKASKYMDMNSLMQVSNIAANIERCGDYLSNIAEEVVNGLLVDPAIKKEVFEIKEIISKMFAHAMNMVKSKTIETEIYELEGNLHKKLDTMMEKIAEHPDENLKDINQFIQFGMFLKDVERFGDRCLKIFELGREFHHNIPKNVTTPEYVRNLK” as the sequence, how does the “soluble on expression in E. coli” value read?
A: not soluble

Q: With “MGSDKIHHHHHHMLRRYRKLGEILLEKGFITREELDKALEIQKEERKPLGEVLIETGYITEDQLLEALSEQYGVPILKELPKNIPLNVVGSIPKNIIESLHVIPVEKKEDGTLVVVTDNGTNIPRIKQEIRFLTGKNPEIYLVTSRDFSVLYQTYVLGVPLELFEEPYVAIEETPEQVEEEEEEEREVEEAPIVRLVNNIVNRAIEMGASDIHIEPMKRTVRVRFRIDGILRKVLEYQKPQHNSVVARIKIMSGLDVSERRLPQDGKFYTIKGGEQYDFRVSTMPSTFGEKVVMRILKVSDANKRLEELGYSEYNLKRILSLLEKPYGIILVTGPTGSGKSTTLVAMINYLKSESVNIVTAEDPVEYTIEGVTQCQVFPEIGLTFARYLRAFLRQDPDIIMVGEIRDRETAQLAVEASLTGHLVLSTLHTNTAAGAVSRLIEMGIDPHLLGASLIGIIGQRLVRKLCDECKMPGEVRDEQVKSYFEQFFGKVPDQIYYPSEEGCPACKGMRYRGRMAIGEVLIVDEELRELISSKASETEIAKLAVKKGMRTMFQDALEKVLLGQTSIEEVFRVTTPL” as the sequence, how does the “soluble on expression in E. coli” value read?
A: not soluble

Q: Which “soluble on expression in E. coli” value does the source give for “MGSDKIHHHHHHMLSHETIWNAIDRLAEQYHLTPSGLARKAGLDPTSFNKSKRVGPDGRMRWPSTESIAKVLEATGARIDQFVTLISNDNHQVNAVHETLPDGNFPPQIGTIPLLGLAQAGSGGFFDDGGFPAGQGWDLVDLPTSAKPGVYALEIQGDSMKPLYRDGDILIVEPGAPVRRGDRVVVKTCDGEVMAKVLGRQTARTVDLISINPDHPNRVLDMQDVEWIARIIWVSQ” here?
A: not soluble

Q: Which “soluble on expression in E. coli” value does the source give for “MGSDKIHHHHHHMLSRTAENLFWLARYVERAEYLARTIEATLRVTALPSAYIGKTNEWDSALLTAGVGGNFYNFHDEANEQSVVDYLAFSSDNPSSIRNCIENARLNARSVRTALTGEMWDTLNSAWIELQEAWGKGTKTREDLTRFLRFVQEISLRFDGSAYRTMLRNDAYWFSRLGLHLERADNTARILDVKYHVLLPEEEHVGGPLDYYQWSSILRSVSALTAYHWVYRETLKPWLIADLLILNDTLPRSLASCYGNLTRNLDNIGVAYGRHGAAQRHARGVRNRLEHSKMDDIFQRGVHEFIQEFIADNARLGEVIAKQYLI” here?
A: not soluble

Q: With “MGSDKIHHHHHHMLSTTNLTMQFGAKALFENVSVEFGNGNRYGLIGANGSGKTTLMKILGGDLEPSSGHVSLSSGERLGKLRQDQFAFEECTVLDTVIMGHAELWRVKQERDRLYALPEMTDEEGMAVAHVEVEFAELGGYAAESRAGELLSGVGIPLEQHSGLMSAVSPGWKLRVLLAQALFADPDILLLDEPTNNLDIHTIQWLEELISNLNSTVIIISHDRHFLNSVCTHMADLDYGELRIYPGNYDEYMQASTLVRDQLLADNDKKKEKMAELQGFVSRFSANASKAKQATSRARQLEKIQLAEVKPSSRQNPYLVFNQERKLYRNALDGKDLSKSFGDLRLFHKMRLHVEAGERIAIIGSNGLGKTTLLRCLMGELTTDAGEIKWAENARIGYFAQDYAPEFAEDMTLFDWMCQWRGERDDDQVIRGVLGRLLFGQDQVNRSVKVLSGGEKGRMLFGKLTLQKPNVLILDEPTNHLDMESIESLNSALEKYDGTLLFVSHDRAFVSSLATRIIEFTPRGIQDFKGTYEDYLRSQGMG” as the sequence, how does the “soluble on expression in E. coli” value read?
A: not soluble

Q: With “MGSDKIHHHHHHMLSVFVVNLRSNSAPFSFSRLLMHTTIVNERSLRTCNFPITLQDIRTLKELYRLKAETRDLRKPIVRNIMKQRVVGKGCLESLKNALYSLETIYIDDYTGQRLLRIDGMKQIEVDLTYEIRELQKDIYYLEYGEDRFIEYLAKFIPGFTDYVTEGVEMLRGKSFNAFITDRDGTTNNYCGRYRSSIQPIYNSVFLSRFAKNCCRYPMIVTSAPLKDFGILNVSINPEHIFVYAGSKGREFIDIDGQFHSFPIEPGKQELIRLLNERMQLLLLDPSFEKFNFIGSALQMKFGQTTIARQDITRSVNEAESAAFLEKIKGIVRDIDPEGKNFRIEDTGLDIEIILTIDVDPKTGMIRDFDKGDGLEFICRKMNIDHTGEPVLVCGDTSSDIPMLKKAMEMYDDVWAIFVTRDEKLMQRVREICPKSYMVPYPDILLTILGLLSL” as the sequence, how does the “soluble on expression in E. coli” value read?
A: not soluble

Q: With “MGSDKIHHHHHHMLTVLLLAGAEKLINMAIASDEITKAGLVPLAGKVLRLNMGTPDVNLDVLFTQERLRFEPVTTESVFEQSGTMNERQKASLERGRLGHSRPDCIITVANPAQLLNLMRGTEGNLPIEGDYKVLMQLNQLVAGFDPDVAGQLEPFIGKPMASQLHLLISQLKGSWRHSAKRAFNDVSDWANDVAGNVTPDTSEAAEVNVLKQQLLKLRADVEREEARLAAIKDEQARLTNSR” as the sequence, how does the “soluble on expression in E. coli” value read?
A: not soluble

Q: Which “soluble on expression in E. coli” value does the source give for “MGSDKIHHHHHHMLVAERQQKIVEIVNMRSSIRVSELSDIFSVTEETIRRDLEKLEKEHKLSRSHGGAVSIQQKESEIHFSEREITNVIEKKAIAHEAAKYVKSGDRIILDASTTAWYMAKILPDIELTVITNSMKAAIELSNKENISVISTGGILLEKSLSFAGPLAERSLETYHVNKTFLSCKGFDVHNGMSDSNEWQALLKKRMIERSDQTILMADSSKWGNREFSHIASLQDVSRLITDSGLDPASVKALEDKKVKVTAVPLSKRG” here?
A: not soluble

Q: With “MGSDKIHHHHHHMLWFKNLMIYRLSQDSVLSKDNVLSTDEMEKRLSAFAFTPCGSQDMMKTGWVSPMGSHSDALTHVVNGQIVICVRKEEKILPSPVIKQTLQAKIERLEAEQHRKLKKTEKDSLKDEVLHSLLPRAFSRLSQVWLWIDTVNGLIMVDAASAKKAEDTLALLRKTLGSLPVVPLTMENPIELTLTEWVRSGEPAAGFALQDEAELKAILEDGGVIRCKKQDLVCDEIAVHIEAGKLVTKLALDWQERIQLILSDDGSVKRLKFSDTLREQNDDIDREDFAQRFDADFILMTSELAALIANLIEALGGEAQR” as the sequence, how does the “soluble on expression in E. coli” value read?
A: not soluble
